Values joined by “and” are separate entries in the source; they are usually repeats but may differ in a detail not shown here. Equal values may be shown once.
Target: Burkholderia pseudomallei Class 2 OLD protein, full-length (Bp^FL, residues 1-594) (Burkholderia pseudomallei)
Experiment: SEC-MALS

For “Burkholderia pseudomallei Class 2 OLD protein, full-length (Bp^FL, residues 1-594) (enzyme)”, the stoichiometry N was 2 and 4.

Reference: article PMC6755086
